Consider two molecules from patent publication US20190135932A1 (Pfizer, published 2019).

Where “and” joins values, the source holds several entries; their conditions need not be identical. Equal values may be shown once.

The term EC50 denotes the midpoint of the concentration-response curve. The term Kd denotes the concentration at which binding is half-saturated. The term koff denotes a measure of how fast the partners let go of each other.

Assay [1] addresses T1, human OX40R-Ig fusion protein (extracellular domain, amino acids 1-220, of human OX40R fused to the constant … (human, UniProt P43489 29-220)).
T1 construct: range 1-220; Range 1-220 as printed; also called OX40-Ig; OX40-human IgG1 fusion protein; not shown: constant region of human IgG1
T1 sequence (looked up): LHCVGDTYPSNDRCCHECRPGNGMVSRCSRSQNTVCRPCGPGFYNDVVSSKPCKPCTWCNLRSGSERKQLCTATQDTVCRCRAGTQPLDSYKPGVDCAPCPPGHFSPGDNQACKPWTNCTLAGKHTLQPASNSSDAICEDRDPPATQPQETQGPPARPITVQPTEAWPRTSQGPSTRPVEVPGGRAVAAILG
Put plainly: ELISA on coated OX40-Ig fusion protein. Background: In an ELISA, binding on a coated surface is turned into a signal by an enzyme label.

The target of assay [2] is T2, Biotinylated CD134-muIg (Ancell 513-030) (UniProt P43489 29-214, biotinylated).
T2 construct: extracellular domain; Captured on streptavidin on a CM5 chip; also called OX40R extracellular domain fusion protein (Biacore ligand); not shown: murine Ig part (muIg) of the bought fusion
T2 sequence (looked up): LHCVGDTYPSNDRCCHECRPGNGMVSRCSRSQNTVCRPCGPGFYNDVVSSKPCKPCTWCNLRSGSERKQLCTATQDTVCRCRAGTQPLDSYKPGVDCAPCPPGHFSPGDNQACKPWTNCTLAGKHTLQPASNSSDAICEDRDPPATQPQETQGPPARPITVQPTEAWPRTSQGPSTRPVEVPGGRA
The experiment in a line: Biacore (SPR), biotinylated CD134-muIg captured on streptavidin, antibody in solution. On the procedure:
Biotinylated CD134-muIg (Ancell 513-030), at a concentration of 10 μg/ml at a flow rate of 5 μl/min was manually injected over Flow cells-2, 3 and 4 to achieve 3 surface densities: Fc-2=150RU, Fc-3=375RU and Fc-4=580RU. The different density surfaces were prepared to monitor the possibility of mass transport limited binding during association phase and rebinding during dissociation, both artifacts that are influenced by surface density that must be avoided.
(In SPR one partner is held on a chip, and binding of the other changes the refractive index at the surface.)

For assay [3], the target named is T3, cynomolgus OX40R on activated cynomolgus monkey T cells / PBMCs (cynomolgus monkey).
T3 construct: whole, on cells; also called monkey cells; cynomolgus PBMC's stimulated with anti-CD3 and anti-CD28
Put plainly: FACS saturation binding on anti-CD3 and anti-CD28 stimulated cynomolgus PBMCs, average over 14 individual monkeys. On the procedure: OX40R-expressing cell lines (see below) or activated primary peripheral blood mononuclear cells (see below) were used to assess binding on both the human and cynomolgus OX40 receptors. Cells were harvested and washed (5×10⁵/tube) using wash buffer at RT°. The wash buffer consisted of PBS, 2% heat-inactivated fetal bovine serum (Hyclone, Logan, Utah) and 0.02% sodium azide (Sigma, St. Louis, Mo.). Next, 100 μl of various concentrations of antibody was added to the cells (starting at 30 ug/ml and using a 3-fold titration) diluted in wash buffer containing 0.005 mg/ml of cytocholasin B (Sigma, St. Louis, Mo.). The cells were gently rocked at RT° for 3 hours. Next, the cells were washed twice and resuspended in 0.5 ml/tube with cold wash buffer and 10,000 events were collected and analyzed using a Becton Dickinson FACSCalibur and CellQuest software (San Jose, Calif.).
Cynomolgus whole blood was obtained using heparinized vacutainer tubes (BD; Franklin Lakes, N.J.) and was diluted 1:4 in PBS. Diluted whole blood was mixed and 15 mls was carefully layered over an equal volume of Histopaque 1077 (Sigma, St Louis, Mo.). […] After a PBS wash, the PBMCs were counted and readjusted to 1×10⁶/ml in tissue culture medium (TCM). […]

B1: human monoclonal antibody 18D8 (antibody, human IgG2, kappa, V domains shown)
VH: EVQLVESGGGLVQPGRSLRLSCAASGFTFDDYAMHWVRQAPGKGLEWVSGISWNSGSIGYADSVKGRFTISRDNAKNSLYLQMNSLRAEDTALYYCAKDQSTADYYFYYGMDVWGQGTTVTVSS
VL: EIVVTQSPATLSLSPGERATLSCRASQSVSSYLAWYQQKPGQAPRLLIYDASNRATGIPARFSGSGSGTDFTLTISSLEPEDFAVYYCQQRSNWPTFGQGTKVEIKR
For the molecule B1, the EC50 in assay [1] is 0.034 µg/mL and 0.23 nM. Further, in assay [2], the Kd is 0.49 µg/mL and 3.38 nM; the off-rate constant (koff) stood at 0.00029 s⁻¹.

B2: human monoclonal antibody 11D4 (antibody, V domains shown)
VH: EVQLVESGGGLVQPGGSLRLSCAASGFTFSSYSMNWVRQAPGKGLEWVSYISSSSSTIDYADSVKGRFTISRDNAKNSLYLQMNSLRDEDTAVYYCARESGWYLFDYWGQGTLVTVSS
VL: DIQMTQSPSSLSASVGDRVTITCRASQGISSWLAWYQQKPEKAPKSLIYAASSLQSGVPSRFSGSGSGTDFTLTISSLQPEDFATYYCQQYNSYPPTFGGGTKVEIKR
notes: IgG2 heavy chain, kappa light chain; allotypes G2(n-) and Km3; Alexa Fluor 647 conjugate was used in the species cross-reactivity FACS
In turn, B2 gave an EC50 in assay [3] of 0.354 µg/mL.
